Assay in all cases: ELISA, lectin-captured E1E2 lysate, Ab 1 ug/ml;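 also: E1E2 captured on Galanthus nivalis lectin-coated plates, bound test antibody read out by an HRP-linked secondary antibody and TMB colour development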
(In an ELISA, binding on a coated surface is turned into a signal by an enzyme label.)

Assay [1] addresses E1E2 complex (H77) with E1 mutation V194A (HCV genotype 1a, isolate H77, UniProt P27958 192-383; P27958 384-746).
The target of assay [2] is E1E2 complex (H77) with E1 mutation R296A (HCV genotype 1a, isolate H77, UniProt P27958 192-383; P27958 384-746).
Assay [3] concerns the target E1E2 complex (H77) with E1 mutation R317A (HCV genotype 1a, isolate H77, UniProt P27958 192-383; P27958 384-746).
For assay [4], the target named is E1E2 complex (H77) with E1 mutation Y309A (HCV genotype 1a, isolate H77, UniProt P27958 192-383; P27958 384-746).
Assay [5] addresses E1E2 complex (H77) with E1 mutation S273A (HCV genotype 1a, isolate H77, UniProt P27958 192-383; P27958 384-746).
The target of assay [6] is E1E2 complex (H77) with E1 mutation Y192A (HCV genotype 1a, isolate H77, UniProt P27958 193-383; P27958 384-746).
Assay [7] deals with E1E2 complex (H77) with E1 mutation L221A (HCV genotype 1a, isolate H77, UniProt P27958 192-383; P27958 384-746).
Assay [8] deals with E1E2 complex (H77) with E1 mutation N234A (HCV genotype 1a, isolate H77, UniProt P27958 192-383; P27958 384-746).
In assay [9] the target is E1E2 complex (H77) with E1 mutation D279A (HCV genotype 1a, isolate H77, UniProt P27958 192-383; P27958 384-746).
The target in assay [10] is E1E2 complex (H77) with E1 mutation G354A (HCV genotype 1a, isolate H77, UniProt P27958 192-383; P27958 384-746).
For assay [11], the target named is E1E2 complex (H77) with E1 mutation Q302A (HCV genotype 1a, isolate H77, UniProt P27958 192-383; P27958 384-746).
Assay [12] deals with E1E2 complex (H77) with E1 mutation H222A (HCV genotype 1a, isolate H77, UniProt P27958 192-383; P27958 384-746).
In assay [13] the target is E1E2 complex (H77) with E1 mutation T314A (HCV genotype 1a, isolate H77, UniProt P27958 192-383; P27958 384-746).
In assay [14] the target is E1E2 complex (H77) with E1 mutation G225A (HCV genotype 1a, isolate H77, UniProt P27958 192-383; P27958 384-746).
Assay [15] deals with E1E2 complex (H77) with E1 mutation A274G (HCV genotype 1a, isolate H77, UniProt P27958 192-383; P27958 384-746).
In assay [16] the target is E1E2 complex (H77) with E1 mutation P224A (HCV genotype 1a, isolate H77, UniProt P27958 192-383; P27958 384-746).
Assay [17] addresses E1E2 complex (H77) with E1 mutation N325A (HCV genotype 1a, isolate H77, UniProt P27958 192-383; P27958 384-746).
For assay [18], the target named is E1E2 complex (H77) with E1 mutation N196A/N305A (HCV genotype 1a, isolate H77, UniProt P27958 192-383; P27958 384-746).
In assay [19] the target is E1E2 complex (H77) with E1 mutation H352A (HCV genotype 1a, isolate H77, UniProt P27958 192-383; P27958 384-746).
The target of assay [20] is E1E2 complex (H77) with E1 mutation D263A (HCV genotype 1a, isolate H77, UniProt P27958 192-383; P27958 384-746).
Assay [21] deals with E1E2 complex (H77) with E1 mutation M322A (HCV genotype 1a, isolate H77, UniProt P27958 192-383; P27958 384-746).
In assay [22] the target is E1E2 complex (H77) with E1 mutation N205A (HCV genotype 1a, isolate H77, UniProt P27958 192-383; P27958 384-746).

B1: N4 IgG (antibody, V domains shown)
VH: VQLLEQSGPEVKKPGDSLRISCKMSGDSLVTTWIGWVRQKPGQGLEWMGIINPGDSSTNIYPGDSATRYGPSFQGQVTISIDKSTSTAYLQWNNVKASDTGIYYCARHVPVPISGTFLWREREMHDFGYFDDWGQGTLVIVSS
VL: ELTLTQSPGTLSLSPGERATLSCRASQSVSNNYLAWYQQKPGQAPRLLIYGASSRATGIPDRFSGSGSGTGFTLIISRLEPEDFAVYYCQQYGSSSITFGQGTRLEIKR
notes: also called IgG N4
Turning to B1, the “Binding relative to wt (%)” value in assay [1] turned out to be 109%; in [2] it was 138%; in [3], 98%; in [4], 32%; in assay [5] it was 70%; in assay [6] it was 122%. Also, the “Binding relative to wt (%)” value worked out at 100% in assay [7]; 114% in assay [8]; 31% in [9]; 90% in assay [10]; 6% in [11]; 44% in [12]. In addition, the “Binding relative to wt (%)” value in [13] turned out to be 83%; in assay [14], 79%; in [15] it was 71%; in assay [16], 104%; in assay [17] it was 150%; in assay [18], 4%. The “Binding relative to wt (%)” value in assay [19] stood at 60%; in assay [20], 85%; in [21], 143%; in assay [22] it was 3%.

For the origin of these results see patent US20110311550A1 (Scripps Research, published 2011).
